Experimental data taken from PMC5737520 (Nucleic Acids Research, 2017).
Blank lines part the entries; values can stand above or below the binder they belong to.

Key:
[1] = biological target: T1, uS13c, chloroplast ribosomal protein S13 (spinach (Spinacia oleracea) (endogenous …, UniProt P82163 48-172)); experiment: cryo-EM structure
T1 sequence (looked up): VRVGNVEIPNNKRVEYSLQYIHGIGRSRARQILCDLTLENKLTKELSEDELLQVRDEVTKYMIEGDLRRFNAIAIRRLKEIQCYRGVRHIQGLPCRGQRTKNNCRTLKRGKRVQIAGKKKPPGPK

[2] = biological target: T2, bS1c, chloroplast ribosomal protein S1 (spinach (Spinacia oleracea) (endogenous …, UniProt P29344 42-411)); experiment: cryo-EM structure
T2 sequence (looked up): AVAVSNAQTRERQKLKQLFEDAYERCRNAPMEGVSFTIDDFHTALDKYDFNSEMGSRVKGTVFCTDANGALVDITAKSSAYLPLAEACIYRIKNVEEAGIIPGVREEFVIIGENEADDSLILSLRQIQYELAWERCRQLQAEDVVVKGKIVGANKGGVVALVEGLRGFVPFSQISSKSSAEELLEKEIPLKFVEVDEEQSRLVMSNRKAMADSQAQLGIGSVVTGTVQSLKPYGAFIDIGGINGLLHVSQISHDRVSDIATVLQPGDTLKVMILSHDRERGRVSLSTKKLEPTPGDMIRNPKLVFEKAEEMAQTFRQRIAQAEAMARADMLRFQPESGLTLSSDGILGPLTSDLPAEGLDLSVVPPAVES

binding result [1]: binds
Binder: GRGDRKTAKGKRFNHSFGNARPKNKNKGRGPPKAPIFPKGDPSQKED (natural protein, UniProt P47910 55-101, looked up) [bTHXc (PSRP4), plastid-specific ribosomal protein of the chloroplast ribosome small subunit]

binding result [2]: binds
B1: uS2c, chloroplast ribosomal protein S2 (natural protein, UniProt P08242 1-236, looked up)
chain: MTRRYWNINLEEMMEAGVHFGHGTRKWNPRMSPYISAKCKGIHIINLTRTARFLSEACDLVFDASSRGKQFLIVGTKNKAADSVARAAIRARCHYVNKKWLGGMLTNWSTTETRLHKFRDLRMEQTAGRLARLPKRDAAVVKRQLSHLQTYLGGIKYMTGLPDIVIIVDQQEEYTALRECITLGIPTICLIDTNCNPDLADISIPANDDAIASIRLILTKLVFAICEGRSSYIRNP
